Measurements published in doi:10.1101/2024.10.30.621104 (bioRxiv, 2024).

Target: the molecule itself
Test: single-molecule photobleaching step counting

B1: HSV-1 origin binding protein UL9 labelled at its C-terminus with Atto647N through a ybbR-tag (enzyme, Herpes simplex virus type 1, UniProt P10193 1-851, looked up)
chain: MPFVGGAESGDPLGAGRPIGDDECEQYTSSVSLARMLYGGDLAEWVPRVHPKTTIERQQHGPVTFPNASAPTARCVTVVRAPMGSGKTTALIRWLREAIHSPDTSVLVVSCRRSFTQTLATRFAESGLVDFVTYFSSTNYIMNDRPFHRLIVQVESLHRVGPNLLNNYDVLVLDEVMSTLGQLYSPTMQQLGRVDALMLRLLRICPRIIAMDATANAQLVDFLCGLRGEKNVHVVVGEYAMPGFSARRCLFLPRLGTELLQAALRPPGPPSGPSPDASPEARGATFFGELEARLGGGDNICIFSSTVSFAEIVARFCRQFTDRVLLLHSLTPLGDVTTWGQYRVVIYTTVVTVGLSFDPLHFDGMFAYVKPMNYGPDMVSVYQSLGRVRTLRKGELLIYMDGSGARSEPVFTPMLLNHVVSSCGQWPAQFSQVTNLLCRRFKGRCDASACDTSLGRGSRIYNKFRYKHYFERCTLACLSDSLNILHMLLTLNCIRVRFWGHDDTLTPKDFCLFLRGVHFDALRAQRDLRELRCRDPEASLPAQAAETEEVGLFVEKYLRSDVAPAEIVALMRNLNSLMGRTRFIYLALLEACLRVPMATRSSAIFRRIYDHYATGVIPTINVTGELELVALPPTLNVTPVWELLCLCSTMAARLHWDSAAGGSGRTFGPDDVLDLLTPHYDRYMQLVFELGHCNVTDGLLLSEEAVKRVADALSGCPPRGSVSETDHAVALFKIIWGELFGVQMAKSTQTFPGAGRVKNLTKQTIVGLLDAHHIDHSACRTHRQLYALLMAHKREFAGARFKLRVPAWGRCLRTHSSSANPNADIILEAALSELPTEAWPMMQGAVNFSTL
modifications: Atto647N fluorophore on the C-terminus through a ybbR-tag
stoichiometry N: 2
